Data published in patent US6685912B2, “Post-labeling stabilization of radiolabeled proteins and peptides” (Rhomed Incorporated, priority 1996, dated 2004).

Experiments:
Assay type in all cases: physicochemical
[1] = Elution of Re-188-RC-160 from C18 SepPak columns (step-gradient of acidified ethanol) after adding post-labeling compounds
[2] = Labeling efficiency of Re-188-RC-160 with ascorbic acid present during labeling (C18 SepPak, RP-HPLC, TLC)
Excerpt: The results obtained by analytical RP-HPLC were confirmed by TLC studies and by isocratic elutions from C-18 SepPak columns. […] The RP-HPLC results were confirmed by TLC. […] The addition of ascorbate, or ascorbate/sulfite solutions, maximized the reduction of the peptide RC-160, which is present in excess, without compromising ^188Re-RC-160. The radiolabeling kit could be formulated with an excess of stannous ions and RC-160 to accommodate a variety of labeling situations. In the presence of ^188Re, the RC-160 and stannous ions interact to result in what is believed to be metal-cyclized ^188Re-RC-160. […] Since ^188Re is produced essentially carrier-free from a 188W/^188Re generator, it is hypothesized that excess stannous ions will reduce the RC-160 not complexed to ^188Re. […] The net result is a stable radiolabeled peptide with a very high specific activity.

[3] = Elution of Re-188-RC-160 from C18 SepPak columns (step-gradient of acidified ethanol) after adding post-labeling compounds; remark: listed apart in the source
Procedure: FIG. 1B is an elution profile of Re-188-RC-160 from a C18-SepPak column using a step-gradient of acidified ethanol.
(§1) Radiolabeling kits were prepared using aseptic techniques, with each kit prepared in a 10 ml serum vial using a 2 ml liquid fill. The liquid fill contained 200 μg of RC-160 peptide in 45 mM sodium potassium tartrate, 10 mM potassium hydrogen phthalate buffer, pH 5.0, in 5 mM stannous tartrate with 1% maltose added as a freeze-drying excipient. Each kit contained a maximum of 1.19 μg of tin. After filling, the vials were lyophilized, the head space gas filled with nitrogen, and the vials stoppered and crimped. Lyophilized vials were then stored refrigerated at 2-80C. To label a kit, 4-5 ml of 188Re-perrhenate solution containing 10-100 mCi was added to the kits, and the kits then heated in a boiling water bath for 30-45 minutes. Following a brief cooling period, 2 ml of ascorbic acid for Injection, U.S.P., was added to the labeled kit through a 0.22 micron filter. Two types of parenteral ascorbate were used with similar results, Ascorbic Acid for Injection, U.S.P., 500 mg/2 ml, and Ascorvit™ (a preparation of ascorbate) 100 mg (Jenapharm, Germany). In this study, RC-160 was radiolabeled at pH 5.0 for 30 minutes at 90° C. and ascorbate was added postlabeling. The temperature effect is shown in FIGS. 2A and 2B: 19 minutes for 37° C. and 21 minutes for 900C. Also shown in FIG. 1B is an elution profile of Re-188-RC 160 from a C18 column using a step-gradient of acidified ethenol. […] FIG. 6. […] FIG. 7 and FIGS. 1A and 1B. […] Briefly, aliquots of 100 μl cysteine dissolved in phosphate buffer saline (pH 7.4 with 1 M NaOH) were diluted in separate microfuge tubes to result in a doubling dilution. 100 μl of Re188-RC-160 was added to each tube and mixed by inversion. The samples were incubated at 45 minutes at 37° C. or 90° C. A 10 μl aliquot of each sample was then spotted on heat-treated ITLC strip and chromatographed in PBS, pH 7.4 until the solvent was 0.5 cm from the strip top. The amount of displacement was expressed as % of total radioactivity at the solvent front. The results for two experiments conducted respectively at 37° and 90° C. are shown at FIG. 3. In a related manner, comparative biodistribution profiles of Re-188-RC-160 at 2 hours post injection into the tail vein of adult, female BALB/c mice (≈25 g weight) (n≧5/group) with each animal receiving 0.2 ml containing approximately 4 μCi. Selected organs as shown in FIG. 4 were resected and weighed and the associated radioactivity was determined as a percentage of injected dose pr gram of tissue. The percent dose from blood, bone and muscle was calculated assuming 7, 8.2 and 40% of total body weight for these tissues. 37° C. and 90° C. were the two temperatures at which radio labeling was performed.

[4] = Cysteine displacement of Re-188 from Re-188-RC-160 (ITLC); details: addition of the ascorbate post-labeling
Procedure: Radiolabeling kits were prepared using aseptic techniques, with each kit prepared in a 10 ml serum vial using a 2 ml liquid fill. The liquid fill contained 200 μg of RC-160 peptide in 45 mM sodium potassium tartrate, 10 mM potassium hydrogen phthalate buffer, pH 5.0, in 5 mM stannous tartrate with 1% maltose added as a freeze-drying excipient. Each kit contained a maximum of 1.19 μg of tin. After filling, the vials were lyophilized, the head space gas filled with nitrogen, and the vials stoppered and crimped. Lyophilized vials were then stored refrigerated at 2-80C. To label a kit, 4-5 ml of 188Re-perrhenate solution containing 10-100 mCi was added to the kits, and the kits then heated in a boiling water bath for 30-45 minutes. Following a brief cooling period, 2 ml of ascorbic acid for Injection, U.S.P., was added to the labeled kit through a 0.22 micron filter. […] The amount of displacement was expressed as % of total radioactivity at the solvent front. […] Selected organs as shown in FIG. 4 were resected and weighed and the associated radioactivity was determined as a percentage of injected dose pr gram of tissue. The percent dose from blood, bone and muscle was calculated assuming 7, 8.2 and 40% of total body weight for these tissues. […]

[5] = Post-labeling stability of radiolabeled RC-160 (uncoupling of isotope) by TLC and RP-HPLC
Procedure: as §1

[6] = post-labeling sodium bisulfite (1 mg/ml, pH 5.5)
[7] = post-labeling sodium sulfite (1 mg/ml, pH 7.4)
[8] = NO ASCORBATE during labeling, 20 mCi Re-188
[9] = PLUS ASCORBATE: 400 μg ascorbic acid introduced along with the Re-188, 20 mCi
[10] = post-labeling Ascorbate for Injection, USP
[11] = post-labeling Ascorvit formulation
[12] = post-labeling ascorbate (50 mg/ml, pH 6.0)

Re-188-RC-160: RC-160, cyclic somatostatin analogue D-Phe-Cys-Tyr-D-Trp-Lys-Val-Cys-Trp-NH2, radiolabeled with 188Re using stannous kit
% of total radioactivity assayed, 80-100% ethanol fraction ([1]; post-labeling SALINE): 4.0% | % of total radioactivity assayed, 40-60% ethanol fraction [1, 6]: 94.0% | % of total radioactivity assayed, 80-100% ethanol fraction [1, 6]: 1.8% | % of total radioactivity assayed, retained on column [1, 6]: 3.3% | % of total radioactivity assayed, 40-60% ethanol fraction [1, 7]: 35.8% | % of total radioactivity assayed, 80-100% ethanol fraction [1, 7]: 3.8% | % of total radioactivity [2, 8]: 2.1% | % of total radioactivity, 10% ethanol [2, 8]: 0.9% | % of total radioactivity, 85% ethanol [2, 8]: 97.0% | % of total radioactivity [2, 9]: 1.4% | % of total radioactivity, 10% ethanol [2, 9]: 52.4% | % of total radioactivity, 85% ethanol [2, 9]: 46.2% | % of total radioactivity assayed, 0-20% ethanol fraction [3, 10]: 0.7% | % of total radioactivity assayed, 40-60% ethanol fraction [3, 10]: 91.5% | % of total radioactivity assayed, 80-100% ethanol fraction [3, 10]: 1.3% | % of total radioactivity assayed, retained on column [3, 10]: 6.6% | % of total radioactivity assayed, 0-20% ethanol fraction [3, 11]: 1.0% | % of total radioactivity assayed, 40-60% ethanol fraction [3, 11]: 94.0% | % of total radioactivity assayed, 80-100% ethanol fraction [3, 11]: 1.8% | % of total radioactivity assayed, retained on column [3, 11]: 3.3% | % of total radioactivity assayed, 0-20% ethanol fraction ([3]; post-labeling SALINE): 0.8% | % of total radioactivity assayed, 40-60% ethanol fraction ([3]; post-labeling SALINE): 85.4% | % of total radioactivity assayed, retained on column ([3]; post-labeling SALINE): 9.7% | % of total radioactivity assayed, 0-20% ethanol fraction [3, 12]: 0.7% | % of total radioactivity assayed, 40-60% ethanol fraction [3, 12]: 96.4% | % of total radioactivity assayed, 80-100% ethanol fraction [3, 12]: 0.9% | % of total radioactivity assayed, retained on column [3, 12]: 1.8% | % of total radioactivity assayed, 0-20% ethanol fraction [3, 6]: 1.0% | % of total radioactivity assayed, 0-20% ethanol fraction [3, 7]: 7.0% | % of total radioactivity assayed, retained on column [3, 7]: 3.5% | Re-peptide bond strength (cysteine displacement) [4]: not altered | stabilization post-labeling ([5]; 50 mg/ml ascorbate compared with 250 mg/ml of ascorbate): yielded the same results | free rhenium in HPLC profile ([5]; 30 hours post-labeling, 65 mCi of 188Re, ascorbate added after labeling): very little free rhenium could be found | stability post-labeling ([5]; ascorbate not added, TLC, confirmed by RP-HPLC): stable for only up to two hours post-labeling | stability post-labeling (uncoupling of 188Re from the peptide) ([5]; post-labeling addition of ascorbate): essentially eliminate the uncoupling and stabilize | stabilization post-labeling ([5]; sodium sulfite (1 mg/ml pH 7.4), sodium bisulfite (1 mg/ml, pH 5.5), or mixtures of ascorbate with sodium sulfite, sodium bisulfite or EDTA): also effective in stabilizing
